The values that follow come from the supplement of paper PMC12764529.

± gives the half width of the 95% confidence interval.

Data set [1] in a line: folding stability dG unfold from trypsin proteolysis; higher = more stable. The method, boiled down: (§1)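 Unfolding free energy was derived, per protease or combined, by relating Bayesian-fitted K50 values from sequencing counts to a sequence-predicted unfolded-state K50 and a shared folded-state K50. The underlying digests exposed cysteine-free mini-proteins under 80 residues, in a PA-tagged cDNA display construct, to trypsin and chymotrypsin at 11 threefold-diluted concentrations and to a no-protease condition. A filter kept only designs with AlphaFold2 dimer inter-PAE above 15.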

Data set [2] can be described thus: folding stability dG unfold from chymotrypsin proteolysis; higher = more stable. The method, boiled down: as §1
The nature of data set [3]: folding stability dG unfold (combined trypsin and chymotrypsin); higher = more stable. The method, boiled down:
as §1

In the case of “SAGGSAGGSAGKKIKLPKELKGKKIEVKEVEIEVEVNGKKYKFKAKIVKFDGKIIAIELESAGGSAGGSAGG [r11_21_TrROS_Hall]”, the “folding stability dG unfold” value in data set [1] is 1.36 ± 0.069 kcal/mol; in data set [2], 3.31 ± 0.055 kcal/mol; in data set [3] it was 2.98 ± 0.17 kcal/mol.

Consider “SAGGSAGGSAGKKIKVKIEVVYTDEDGNKHKVEMEKEIELKPGDKITLPPEAITRVEILPSAGGSAGGSAGG [r11_664_TrROS_Hall]”, for which the “folding stability dG unfold” value in data set [1] came to 0.832 ± 0.17 kcal/mol; in data set [2] it was 1.95 ± 0.12 kcal/mol; in data set [3] it was 1.57 ± 0.19 kcal/mol.

Turning to “SAGGSAGGSAGKKITIELPEGVKVYKLPNENDYIIVEDEKTKEKYIFKIKDGKVELIEKLSAGGSAGGSAGG [r11_1036_TrROS_Hall]”, the “folding stability dG unfold” value in data set [1] came out at 1.01 ± 0.054 kcal/mol; in data set [2] it was 1.86 ± 0.15 kcal/mol; in data set [3], 1.47 ± 0.14 kcal/mol.

Consider “SAGGSAGGSAGKKKGKKPKKIKVKKIKLIVKDKETNEYYEKEITVNKDGTLTIKVKKLKKSAGGSAGGSAGG [r11_883_TrROS_Hall]”, for which the “folding stability dG unfold” value turned out to be 1.85 ± 0.083 kcal/mol in data set [1], 3.07 ± 0.089 kcal/mol in data set [2] and 2.75 ± 0.1 kcal/mol in data set [3].

For “SAGGSAGGSAGKKKKKKLVRVRITYKNGKKKEFVFKTKEEAEKALKEEFNIEKIEIEEIPSAGGSAGGSAGG [r17_508_TrROS_Hall]”, the “folding stability dG unfold” value came out at 2.84 ± 0.1 kcal/mol in data set [1], 3.66 ± 0.068 kcal/mol in data set [2] and 3.43 ± 0.16 kcal/mol in data set [3].

As to “SAGGSAGGSAGKKKLTVTVKKKKPAKEKKKVKTKVVKEKKLELSEEELKKLLDELKELLESAGGSAGGSAGG [r11_418_TrROS_Hall]”, the entries for the “folding stability dG unfold” value in data set [1], in data set [2] and in data set [3] were 0.624 ± 0.079 kcal/mol, -0.447 ± 0.14 kcal/mol and 0.321 ± 0.16 kcal/mol, respectively.

“SAGGSAGGSAGKKLKPFKVVEVKEPVKEGDVIEVENEATGELYRFTVVNGEIKIEKVKLDSAGGSAGGSAGG [r11_94_TrROS_Hall]”: the figures for the “folding stability dG unfold” value in data set [1], in data set [2] and in data set [3] were 0.225 ± 0.053 kcal/mol, 0.442 ± 0.21 kcal/mol and 0.365 ± 0.29 kcal/mol, respectively.

As to “SAGGSAGGSAGKKPPKVKVLELTFTLEDGYKVTVRLVENEDGELFLEIRIEPLPELPEEKSAGGSAGGSAGG [r11_998_TrROS_Hall]”, the “folding stability dG unfold” value in data set [1] stood at 1.79 ± 0.16 kcal/mol; in data set [2], 3.36 ± 0.14 kcal/mol; in data set [3] it was 2.94 ± 0.13 kcal/mol.

Regarding “SAGGSAGGSAGKKPPVYRLVVENEDGEKYEFEFKSLEDLKAALESEEVRKKIKKVKIEKVSAGGSAGGSAGG [r11_1047_TrROS_Hall]”, the “folding stability dG unfold” value in data set [1] amounted to 2.11 ± 0.09 kcal/mol; in data set [2], 3.02 ± 0.11 kcal/mol; in data set [3] it was 2.6 ± 0.15 kcal/mol.

“SAGGSAGGSAGKKSYVLIKVKNPKTKETHTIVVPEENLEEVLKALASQPNVKVVDIERFPSAGGSAGGSAGG [r11_692_TrROS_Hall]”: the “folding stability dG unfold” value in data set [1] came to 3.65 ± 0.19 kcal/mol; in data set [2], 4.11 ± 0.065 kcal/mol; in data set [3], 3.95 ± 0.12 kcal/mol.

In the case of “SAGGSAGGSAGKKVKISLILIAKSPEEAEEAAKAIKEAFGSEDVEVDIIEIPAKLGPGKLSAGGSAGGSAGG [r17_285_TrMRF]”, the results for the “folding stability dG unfold” value in data set [1], in data set [2] and in data set [3] were 0.319 ± 0.072 kcal/mol, 0.252 ± 0.12 kcal/mol and 0.378 ± 0.26 kcal/mol, respectively.

On to “SAGGSAGGSAGKKYKVKVILQPKGEDKPLEIEIEVESLEEAKELLEKAFPDTRIRIDVIESAGGSAGGSAGG [r17_428_TrMRF]”, for which the figures for the “folding stability dG unfold” value in data set [1], in data set [2] and in data set [3] were 1.99 ± 0.098 kcal/mol, 2.93 ± 0.088 kcal/mol and 2.59 ± 0.18 kcal/mol, respectively.

Consider “SAGGSAGGSAGKLPEGMKMEVRPKTIFNEDGYMIKITIIRAPDPNILAINIEIIPPGDPISAGGSAGGSAGG [r11_338_TrROS]”, for which the results for the “folding stability dG unfold” value in data set [1], in data set [2] and in data set [3] were 2.04 ± 0.12 kcal/mol, 1.89 ± 0.14 kcal/mol and 2.14 ± 0.24 kcal/mol, respectively.

For “SAGGSAGGSAGKLRVRIPPRLRERLRKRKRVRLRLRVEEREVRDEDGNLRRVRRLEIELESAGGSAGGSAGG [r11_113_TrROS_Hall]”, the “folding stability dG unfold” value in data set [1] is 0.819 ± 0.15 kcal/mol; in data set [2], 2.03 ± 0.19 kcal/mol; in data set [3], 1.42 ± 0.17 kcal/mol.
